# In the supplement of paper PMC12783771:
# ± gives the standard deviation of the averaged measurements.
# B1: library; numbered along this chain (parent)
# chain: MNIQIGELAKRTACPVVTIRFYEQEGLLPPPGRSRGNFRLYGEEHVERLQFIRHCRSLDMPLSDVRTLLSYRKRPDQDCGEVNMLLDEHIRQVESRIGALLELKHHLVELREACSGARPAQSCGILQGLSDCVCDTRGTTAHPSD
# Tests used:
# [1] = variants of: B1; assay: sfGFP reporter fluorescence (15 h) (µM FITC); higher = higher leak; conditions: library round: Round 0; ligand: none
# Method: (§1)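 Cell-free (BL21 Star DE3 extract, PANOx-SP) biosensing: 1 µL Echo-assembled reactions with linear PbrR variant templates (5 nM) and pPbrR-sfGFP reporter, with 1 µM Pb (lead chloride), 30 µM Zn (zinc acetate) or no ligand; endpoint sfGFP fluorescence after 15 h at 30 °C, calibrated as µM FITC. Round 0 library (alanine scan, site saturation, combinatorial) of PbrR from Cupriavidus metallidurans; 2 biological replicates.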
# [2] = variants of: B1; assay: sfGFP reporter fluorescence (15 h) (µM FITC); higher = stronger transcriptional activation; conditions: library round: Round 0
# Method: as §1
# [3] = variants of: B1; assay: sfGFP reporter fluorescence (15 h) (µM FITC); higher = higher leak; conditions: library round: Round 1; ligand: none
# Summary of the method: (§2)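 Values are endpoint sfGFP fluorescence given as µM FITC equivalents. Fluorescence was read at 485/528 nm on a Synergy Neo2, and FITC standard curves were prepared in 50 mM sodium borate pH 8.5. Reactions of 1 μL combined BL21 Star (DE3) PANOx-SP extract, pPbrR-sfGFP reporter, 30 μg/mL GamS and linear PbrR templates (PCR-made, Echo-normalized to 5 nM), with 1 µM lead chloride, 30 µM zinc acetate or no metal, for 15 hr at 30 °C.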
# [4] = variants of: B1; assay: sfGFP reporter fluorescence (15 h) (µM FITC); higher = stronger transcriptional activation; conditions: library round: Round 1
# Summary of the method: as §2
Variant,sfGFP reporter fluorescence [1],sfGFP reporter fluorescence ([2]; ligand: 1 µM Pb),sfGFP reporter fluorescence ([2]; ligand: 30 µM Zn),sfGFP reporter fluorescence [3],sfGFP reporter fluorescence ([4]; ligand: 1 µM Pb),sfGFP reporter fluorescence ([4]; ligand: 30 µM Zn)
C55F,0.0634 ± 0.001,0.0674 ± 0.001,0.0876,,,
V108R P143M,,,,0.0636 ± 0.002,0.0724 ± 0.0057,0.376 ± 0.019
V16C V46C,,,,0.0646 ± 0.0017,0.066 ± 0.0025,0.0632 ± 0.0019
M60L D64K D135S,,,,0.29 ± 0.02,0.662 ± 0.097,1.93 ± 0.17
V16N L58A,,,,0.0597 ± 0.0018,0.0608 ± 0.00073,0.0591 ± 0.0024
E109W,0.061 ± 0.00078,0.0872 ± 0.0026,1.26 ± 0.035,,,
E109K,0.0649 ± 0.001,0.09492 ± 0.00052,2.2 ± 0.14,,,
K104G,0.0526 ± 0.0075,0.0524 ± 0.0057,0.22 ± 0.0034,,,
D64H,0.0682 ± 0.001,0.12 ± 0.0054,1.81 ± 0.088,,,
V82G,0.0555 ± 0.0023,0.0564 ± 0.001,0.0548 ± 0.0018,,,
V82D,0.057 ± 0.0044,0.0597,0.055,,,
V82T,0.0588 ± 0.0013,0.059 ± 0.0021,0.0583 ± 0.0057,,,
V82F,0.0572,0.0572 ± 0.0015,0.053 ± 0.0023,,,
G6M,0.0603 ± 0.0013,0.0586 ± 0.001,0.0654 ± 0.0034,,,
G6T,0.0594 ± 0.0021,0.0608 ± 0.0015,0.0799 ± 0.0047,,,
D64K I90C K104V,,,,0.0914 ± 0.0024,0.341 ± 0.073,0.959 ± 0.086
P61N I90L K104G,,,,0.0641 ± 0.0019,0.0616 ± 0.0054,0.119 ± 0.012
R39W,0.05956 ± 0.00026,0.0599 ± 0.00078,0.06011 ± 0.00052,,,
R39T,0.0616 ± 0.001,0.0608,0.06029 ± 0.00026,,,
K104V R111A,,,,0.0644 ± 0.0027,0.096 ± 0.0033,0.356 ± 0.013
L107D,0.0586 ± 0.0021,0.0596 ± 0.0018,0.0579 ± 0.0026,,,
P61N D64K L107C G128M,4.78 ± 0.1,5.3 ± 0.14,4.84 ± 0.18,,,

Variant,sfGFP reporter fluorescence [1],sfGFP reporter fluorescence ([2]; ligand: 1 µM Pb),sfGFP reporter fluorescence ([2]; ligand: 30 µM Zn),sfGFP reporter fluorescence [3],sfGFP reporter fluorescence ([4]; ligand: 1 µM Pb),sfGFP reporter fluorescence ([4]; ligand: 30 µM Zn)
M60L D64K D131C,,,,0.344 ± 0.036,0.896 ± 0.29,2.2 ± 0.15
R33P,0.0607 ± 0.0013,0.05956 ± 0.00026,0.064 ± 0.00078,,,
P29A,0.0607 ± 0.0044,0.0704 ± 0.0031,0.455 ± 0.039,,,
G128L D135A,,,,0.075 ± 0.0011,0.155 ± 0.011,0.981 ± 0.14
N83S D131A D135A,,,,0.0661 ± 0.0022,0.082 ± 0.01,0.275 ± 0.028
C123Q,0.0585 ± 0.00078,0.05809 ± 0.00026,0.0546 ± 0.0015,,,
C123P,0.0559 ± 0.00078,0.05772 ± 0.00026,0.0526 ± 0.00078,,,
C79T,0.0575 ± 0.0031,0.0592 ± 0.0018,0.0555 ± 0.0018,,,
I97S K104V,,,,0.0836 ± 0.0026,0.247 ± 0.016,0.825 ± 0.05
V108I,0.0566 ± 0.0013,0.0667 ± 0.0026,0.508 ± 0.011,,,
M60L D64K P143A,,,,0.3527 ± 0.0018,0.945 ± 0.11,2.4 ± 0.12
E109A R111L,,,,0.06463 ± 0.00021,0.0688 ± 0.0022,0.1654 ± 0.00092
N83H,2.73 ± 0.37,2.63 ± 0.52,3.526 ± 0.0086,,,
N83Y,0.0594 ± 0.0015,0.0762 ± 0.001,0.0645 ± 0.0015,,,
L107C E109H,,,,0.16 ± 0.0068,0.673 ± 0.092,1.68 ± 0.14
N83T D131S D135R,,,,0.064 ± 0.0013,0.0955 ± 0.0087,0.21 ± 0.0094
N83T D131S D135A,,,,0.0613 ± 0.0024,0.0871 ± 0.0043,0.193 ± 0.0075
M60L P61N K104V G128I,0.148 ± 0.0083,0.448 ± 0.098,1.76 ± 0.23,,,
N37A,0.0634 ± 0.001,0.0729 ± 0.0042,0.481 ± 0.007,,,
V46W,0.0583 ± 0.0021,0.0757 ± 0.0034,0.429 ± 0.0044,,,
D64A R111L,,,,0.061 ± 0.0013,0.105 ± 0.01,0.743 ± 0.022
N83S E112L,,,,0.0612 ± 0.0034,0.0759 ± 0.0016,0.152 ± 0.006
